The record followed here is patent publication US20100021899 (NATIONAL UNIVERSITY CORPORATION TOKYO UNIVERSITY OF …, published 2010).

For the series, the target named is BSA (bovine serum albumin) (Bos taurus, UniProt P02769 P02769:25-607). The series is described as follows: ELONA; plate assay on immobilized CaDNA-3-11T; no concentration-dependent signal with BSA; PBS-T, room temperature. As to conditions: structure-switching stem-loop.
Sequence of BSA (bovine serum albumin) (P02769 25-607, one chain of several): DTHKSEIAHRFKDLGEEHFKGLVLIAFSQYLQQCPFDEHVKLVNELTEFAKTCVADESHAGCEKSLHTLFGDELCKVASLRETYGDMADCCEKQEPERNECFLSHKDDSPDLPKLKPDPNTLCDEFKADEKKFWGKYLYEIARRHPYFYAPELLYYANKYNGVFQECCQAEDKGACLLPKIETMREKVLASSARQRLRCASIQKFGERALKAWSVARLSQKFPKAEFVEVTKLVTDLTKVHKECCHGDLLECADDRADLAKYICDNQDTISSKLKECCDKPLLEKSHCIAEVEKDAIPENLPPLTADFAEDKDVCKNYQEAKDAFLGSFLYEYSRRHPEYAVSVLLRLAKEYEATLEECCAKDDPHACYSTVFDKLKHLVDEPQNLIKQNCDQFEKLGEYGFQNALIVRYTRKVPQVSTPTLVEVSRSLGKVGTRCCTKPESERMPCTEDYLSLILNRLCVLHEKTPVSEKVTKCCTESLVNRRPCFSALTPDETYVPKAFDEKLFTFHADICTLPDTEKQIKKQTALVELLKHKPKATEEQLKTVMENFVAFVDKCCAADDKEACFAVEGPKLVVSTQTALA

B1: CaAp-3 (ssDNA)
DNA: GTTCGGCACTTGGGCCCTTTTCTGTGTCTTTCTGTGCCCTTAGATAGTATGTGCAATCA
B1: the binding result is on record as “no binding”.
